From patent US20230158117A1, “COMPOSITION FOR PREVENTION OR TREATMENT OF […] COMPRISING TRIGONAL GLUCAGON/GLP-1/GIP RECEPTOR AGONIST OR CONJUGATE THEREOF AND METHOD USING THE SAME” (HANMI PHARM. CO., LTD., priority 2020, published 2023)
Values belong to the molecule of their own block, whether it stands above or below them. Bridges are numbered along the chain shown (N, C = ends). Where no end group is shown, it is not given here. [ ]: non-standard residue; d: D form. Aib = CC(C)(N)C(=O)O

Tests used:
[1] = target: human GLP-1 receptor (Homo sapiens, UniProt P43220); test: In vitro activity (cAMP accumulation, LANCE cAMP kit) in CHO cells expressing human GLP-1 receptor; format: cell-based; parameters: expressed in transfected cells; host or cells: Chinese hamster ovary (CHO); settings: long-acting conjugate, relative potency from cAMP EC50 compared to human GLP-1
Experimental: (§1) Activities of the triple agonists and the long-acting conjugates thereof respectively prepared in Examples 1 and 2 were measured using transformed cell lines in which a GLP-1 receptor, a glucagon (GCG) receptor, and a GIP receptor were transformed by way of a method of measuring in vitro cellular activities.
(§2) The cell lines were transformed such that genes for the human GLP-1 receptor, the human GCG receptor, and the human GIP receptor were each expressed in Chinese hamster ovary (CHO), and were suitable for measuring activities of GLP-1, GCG, and GIP, respectively. Therefore, the activity for each part was measured using each of the transformed cell lines.
(§3) For measurement of the activity of each of the triple agonists and the long-acting conjugates thereof respectively prepared in Examples 1 and 2 to GLP-1, human GLP-1 was subjected to a 4-fold serial dilution from 50 nM to 0.000048 nM, and the triple agonists and the long-acting conjugates thereof respectively prepared in Examples 1 and 2 were subjected to a 4-fold serial dilution from 400 nM to 0.00038 nM. A cultured solution was removed from the cultured CHO cells in which the human GLP-1 receptor was expressed, and each of the serially diluted substances was added to the CHO cells in an amount of 5 μL. Then, a buffer solution including cAMP antibody was added thereto in an amount of 5 μL and cultured at room temperature for 15 minutes. Thereafter, a detection mix including a cell lysis buffer was added thereto in an amount of 10 μL for lysis of the cells, followed by reaction at room temperature for 90 minutes. Upon completion of the reaction, the cell lysates were applied to a LANCE cAMP kit (PerkinElmer, USA) to calculate EC50 values via accumulated cAMP, and the values were compared with each other.

[2] = target: T1, human GIP receptor (Homo sapiens, UniProt P48546); test: In vitro activity (cAMP accumulation, LANCE cAMP kit) in CHO cells expressing human GIP receptor; format: cell-based; settings: long-acting conjugate, relative potency from cAMP EC50 compared to human GIP
T1 construct: expressed in transfected cells; host or cells: Chinese hamster ovary (CHO)
T1 sequence (P48546 22-466): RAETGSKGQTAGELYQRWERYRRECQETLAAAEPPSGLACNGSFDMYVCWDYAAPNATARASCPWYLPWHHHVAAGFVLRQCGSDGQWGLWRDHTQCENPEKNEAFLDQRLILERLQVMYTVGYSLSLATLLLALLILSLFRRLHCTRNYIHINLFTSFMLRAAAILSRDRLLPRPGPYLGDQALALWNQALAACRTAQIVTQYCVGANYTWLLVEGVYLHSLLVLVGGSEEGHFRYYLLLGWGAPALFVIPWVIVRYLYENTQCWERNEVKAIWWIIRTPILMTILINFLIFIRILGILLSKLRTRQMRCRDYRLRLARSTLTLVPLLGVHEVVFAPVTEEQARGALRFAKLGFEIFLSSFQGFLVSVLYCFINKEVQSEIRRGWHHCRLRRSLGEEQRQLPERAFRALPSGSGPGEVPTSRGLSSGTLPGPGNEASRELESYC
Experimental: as §1, §2
as §3, with “activity” for “activity of each”, “GIP,” for “GLP-1,”, “GIP” for “GLP-1”

[3] = target: T2, human GCG receptor (Homo sapiens, UniProt P47871); test: In vitro activity (cAMP accumulation, LANCE cAMP kit) in CHO cells expressing human GCG receptor; format: cell-based; settings: long-acting conjugate, relative potency from cAMP EC50 compared to human GCG
T2 construct: expressed in transfected cells; host or cells: Chinese hamster ovary (CHO)
Experimental: as §1, §2
as §3, with “activity” for “activity of each”, “GCG,” for “GLP-1,”, “GCG” for “GLP-1”

[4] = test system: hyperlipidemia hamsters; test: Therapeutic effect on hyperlipidemia in fructose-fed hyperlipidemia hamsters; format: in vivo, Golden Syrian hamsters; settings: 219.2 nmol/kg, QW; comparative example; FIG. 1
From the text: Golden Syrian hamsters (hereinafter referred to as hyperlipidemia hamsters) were fed with fructose for 2 weeks to induce a hyperlipidemia model. Among the triple agonists prepared in Example 1, SEQ ID NO: 42 (1.6 nmol/kg, 3.1 nmol/kg, Q2D) was selected, and the long-acting conjugate of the triple agonist having SEQ ID NO: 42 was repeatedly administered to the hamsters induced with hyperlipidemia for 3 weeks by subcutaneous administration. As a comparative example, therapeutic effects of evolocumab (219.2 nmol/kg, QW), as a conventional therapeutic agent, on hyperlipidemia were measured.

Chain of human GLP-1 receptor (P43220 24-463): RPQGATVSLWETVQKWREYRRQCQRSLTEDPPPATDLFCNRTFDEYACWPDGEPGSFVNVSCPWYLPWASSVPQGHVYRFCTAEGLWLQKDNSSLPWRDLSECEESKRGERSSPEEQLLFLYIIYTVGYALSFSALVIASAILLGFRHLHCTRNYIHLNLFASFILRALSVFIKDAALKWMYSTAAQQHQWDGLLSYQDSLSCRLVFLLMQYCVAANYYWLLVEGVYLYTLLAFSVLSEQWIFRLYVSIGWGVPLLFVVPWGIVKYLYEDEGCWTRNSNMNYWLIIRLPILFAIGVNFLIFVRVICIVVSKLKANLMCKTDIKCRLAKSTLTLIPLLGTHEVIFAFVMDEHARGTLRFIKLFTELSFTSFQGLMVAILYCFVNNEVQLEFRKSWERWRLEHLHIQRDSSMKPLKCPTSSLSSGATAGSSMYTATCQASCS

Molecule: 43 (Y[Aib]QGTFTSDYSKYLDEKRAKEFVQWLLDHHCSSGQPPPS; bridge 16-20) [compound 43]
In vitro activity relative to native peptide (%) vs. GLP-1 [1]: 2.1%
In vitro activity relative to native peptide (%) vs. GIP [2]: 0.6%
In vitro activity relative to native peptide (%) vs. Glucagon [3]: 13.5%

Molecule: 96 (Y[Aib]QGTFTSDYSKYLDEKRAKEFVQWLLDHCPSSGQPPPS; bridge 16-20) [compound 96]
In vitro activity relative to native peptide (%) vs. GLP-1 [1]: 0.3%
In vitro activity relative to native peptide (%) vs. GIP [2]: 0.3%
In vitro activity relative to native peptide (%) vs. Glucagon [3]: 4.0%

Molecule: 21 (Y[Aib]QGTFTSDYSKYLDECRAKEFVQWLLDHHPSSGQPPPS; bridge 16-20) [compound 21]
In vitro activity relative to native peptide (%) vs. GLP-1 [1]: 0.1%
In vitro activity relative to native peptide (%) vs. GIP [2]: 0.2%
In vitro activity relative to native peptide (%) vs. Glucagon [3]: 1.6%

B1: evolocumab (antibody, chains of the INN, looked up, V domains shown)
VH: EVQLVQSGAEVKKPGASVKVSCKASGYTLTSYGISWVRQAPGQGLEWMGWVSFYNGNTNYAQKLQGRGTMTTDPSTSTAYMELRSLRSDDTAVYYCARGYGMDVWGQGTTVTVSS
VL: ESALTQPASVSGSPGQSITISCTGTSSDVGGYNSVSWYQQHPGKAPKLMIYEVSNRPSGVSNRFSGSKSGNTASLTISGLQAEDEADYYCNSYTSTSMVFGGGTKLTVL
notes: conventional therapeutic agent for hyperlipidemia
effects on total blood cholesterol level and blood LDL level [4]: negligible effects

Next, values leading:

In vitro activity relative to native peptide (%) vs. GLP-1 [1]: 6.7%
In vitro activity relative to native peptide (%) vs. GIP [2]: 6.6%
In vitro activity relative to native peptide (%) vs. Glucagon [3]: 1.7%
Molecule: 77 (Y[Aib]QGTFTSDYSKYLDEKAAKDFVQWLLDHHPSSGQPPPSC; bridge 16-20) [compound 77]

In vitro activity relative to native peptide (%) vs. GLP-1 [1]: 3.1%
In vitro activity relative to native peptide (%) vs. GIP [2]: 1.2%
In vitro activity relative to native peptide (%) vs. Glucagon [3]: 23.1%
Molecule: 42 (Y[Aib]QGTFTSDYSKYLDEKRAKEFVQWLLDHHPSSGQPPPSC; bridge 16-20) [compound 42]

In vitro activity relative to native peptide (%) vs. GLP-1 [1]: 0.1%
In vitro activity relative to native peptide (%) vs. GIP [2]: 0.5%
In vitro activity relative to native peptide (%) vs. Glucagon [3]: 0.9%
Molecule: 22 (Y[Aib]QGTFTSDYSKCLDEKRAKEFVQWLLDHHPSSGQPPPS; bridge 16-20) [compound 22]

In vitro activity relative to native peptide (%) vs. GLP-1 [1]: 15.4%
In vitro activity relative to native peptide (%) vs. GIP [2]: 0.7%
In vitro activity relative to native peptide (%) vs. Glucagon [3]: 6.9%
Molecule: 50 (H[Aib]QGTFTSDYSKYLDEKRAKEFVQWLLDHHPSSGQPPPSC; bridge 16-20) [compound 50]
